According to the supplement of paper PMC5998384:

Key:
HeLa Kyoto [1] = experiment: solubility in G1/S (NP-40 vs SDS abundance) (log2 ratio); higher = more soluble; conditions: cell cycle stage: G1/S
HeLa Kyoto [2] = experiment: melting temperature (median over replicates), in situ; higher = more thermally stable
HeLa Kyoto [3] = experiment: solubility change mitosis vs G1/S (difference of NP-40 vs SDS log2 ratios) (log2 ratio difference); higher = more soluble in mitosis
HeLa Kyoto [4] = experiment: thermal stability score vs G1/S (z-score of summed log2 fold changes over temperatures); higher = more thermally stable than in G1/S
[5] = cell cycle stage: early G1 (4.5 h after nocodazole release)
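For melting temperature (median over replicates), in situ in this document: HeLa Kyoto cells synchronized by double thymidine or nocodazole block, proteins quantified by TMT10plex mass spectrometry, three independent biological replicates.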
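For solubility change mitosis vs G1/S (difference of NP-40 vs SDS log2 ratios) in this document: synchronized HeLa Kyoto cells (double thymidine block for G1/S, nocodazole release for mitosis), protein amounts in NP-40 versus SDS lysates quantified by mass spectrometry, three biological replicates.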
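For solubility in G1/S (NP-40 vs SDS abundance) in this document: HeLa Kyoto cells arrested at G1/S by double thymidine block, proteins quantified by TMT10plex mass spectrometry in mild NP-40 versus SDS extracts, three biological replicates.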
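For thermal stability score vs G1/S (z-score of summed log2 fold changes over temperatures) in this document: synchronized HeLa Kyoto cells, proteins quantified by TMT10plex mass spectrometry, three biological replicates, mitosis taken 0.5 h after nocodazole release, G1/S directly after double thymidine block.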

Row | Sequence | solubility in G1/S (log2) (HeLa Kyoto [1]) | melting temperature (HeLa Kyoto [2]; cell cycle stage: G1/S) [°C] | melting temperature (HeLa Kyoto [2]; cell cycle stage: mitosis) [°C] | solubility change mitosis (log2) (HeLa Kyoto [3]) | thermal stability score (HeLa Kyoto [4]; [5]) | thermal stability score (HeLa Kyoto [4]; cell cycle stage: mitosis)
1 | MGKKSRAVPGRRPILQLSPPGPRGSTPGRDPEPEPDTEPDSTAAVPSQPAPSAATTTTTAVTAAAASDDSPSEDEQEAVQEVPRVVQNPPKPVMTTRPTAVKATGGLCLLGAYADSDDDDNDVSEKLAQSKETNGNQSTDIDSTLANFLAEIDAITAPQPAAPVGASAPPPTPPRPEPKEAATSTLSSSTSNGTDSTQTSGWQYDTQCSLAGVGIEMGDWQEVWDENTGCYYYWNTQTNEVTWELPQYLATQVQGLQHYQPSSVPGAETSFVVNTDIYSKEKTISVSSSKSGPVIAKREVKKEVNEGIQALSNSEEEKKGVAASLLAPLLPEGIKEEEERWRRKVICKEEPVSEVKETSTTVEEATTIVKPQEIMLDNIEDPSQEDLCSVVQSGESEEEEEQDTLELELVLERKKAELRALEEGDGSVSGSSPRSDISQPASQDGMRRLMSKRGKWKMFVRATSPESTSRSSSKTGRDTPENGETAIGAENSEKIDENSDKEMEVEESPEKIKVQTTPKVEEEQDLKFQIGELANTLTSKFEFLGINRQSISNFHVLLLQTETRIADWREGALNGNYLKRKLQDAAEQLKQYEINATPKGWSCHWDRDHRRYFYVNEQSGESQWEFPDGEEEEEESQAQENRDETLAKQTLKDKTGTDSNSTESSETSTGSLCKESFSGQVSSSSLMPLTPFWTLLQSNVPVLQPPLPLEMPPPPPPPPESPPPPPPPPPPAEDGEIQEVEMEDEGSEEPPAPGTEEDTPLKPSAQTTVVTSQSSVDSTISSSSSTKGIKRKATEISTAVVQRSATIGSSPVLYSQSAIATGHQAAGIGNQATGIGHQTIPVSLPAAGMGHQARGMSLQSNYLGLAAAPAIMSYAECSVPIGVTAPSLQPVQARGAVPTATIIEPPPPPPPPPPPPPPAPKMPPPEKTKKGRKDKAKKSKTKMPSLVKKWQSIQRELDEEDNSSSSEEDRESTAQKRIEEWKQQQLVSGMAERNANFEALPEDWRARLKRRKMAPNT [FNBP4] | -0.323 | 62.5 | 62.1 | 0.168 | -4.32 | -4.84
2 | MAEAGDAALSVAEWLRALHLEQYTGLFEQHGLVWATECQGLSDTRLMDMGMLLPGHRRRILAGLLRAHTSPAPAPRPTPRPVPMKRHIFRSPPVPATPPEPLPTTTEDEGLPAAPPIPPRRSCLPPTCFTTPSTAAPDPVLPPLPAKRHLAELSVPPVPPRTGPPRLLVSLPTKEEESLLPSLSSPPQPQSEEPLSTLPQGPPQPPSPPPCPPEIPPKPVRLFPEFDDSDYDEVPEEGPGAPARVMTKKEEPPPSRVPRAVRVASLLSEGEELSGDDQGDEEEDDHAYEGVPNGGWHTSSLSLSLPSTIAAPHPMDGPPGGSTPVTPVIKAGWLDKNPPQGSYIYQKRWVRLDTDHLRYFDSNKDAYSKRFISVACISHVAAIGDQKFEVITNNRTFAFRAESDVERKEWMQALQQAMAEQRARARLSSAYLLGVPGSEQPDRAGSLELRGFKNKLYVAVVGDKVQLYKNLEEYHLGIGITFIDMSVGNVKEVDRRSFDLTTPYRIFSFSADSELEKEQWLEAMQGAIAEALSTSEVAERIWAAAPNRFCADCGAPQPDWASINLCVVICKRCAGEHRGLGAGVSKVRSLKMDRKVWTETLIELFLQLGNGAGNRFWAANVPPSEALQPSSSPSTRRCHLEAKYREGKYRRYHPLFGNQEELDKALCAAVTTTDLAETQALLGCGAGINCFSGDPEAPTPLALAEQAGQTLQMEFLRNNRTTEVPRLDSMKPLEKHYSVVLPTVSHSGFLYKTASAGKLLQDRRAREEFSRRWCVLGDGVLSYFENERAVTPNGEIRASEIVCLAVPPPDTHGFEHTFEVYTEGERLYLFGLESAEQAHEWVKCIAKAFVPPLAEDLLARDFERLGRLPYKAGLSLQRAQEGWFSLSGSELRAVFPEGPCEEPLQLRKLQELSIQGDSENQVLVLVERRRTLYIQGERRLDFMGWLGAIQKAAASMGDTLSEQQLGDSDIPVIVYRCVDYITQCGLTSEGIYRKCGQTSKTQRLLESLRQDARSVHLKEGEQHVDDVSSALKRFLRDLPDGLFTRAQRLTWLEASEIEDEEEKVSRYRELLVRLPPVNRATVKALISHLYCVQCFSDTNQMNVHNLAIVFGPTLFQTDGQDYKAGRVVEDLINHYVVVFSVDEEELRKQREEITAIVKMRVAGTASGTQHAGDFICTVYLEEKKAETEQHIKVPASMTAEELTLEILDRRNVGIREKDYWTCFEVNEREEAERPLHFAEKVLPILHGLGTDSHLVVKKHQAMEAMLLYLASRVGDTKHGMMKFREDRSLLGLGLPSGGFHDRYFILNSSCLRLYKEVRSQRPWSGAPETSHRPEKEWPIKSLKVYLGVKKKLRPPTCWGFTVVHETEKHEKQQWYLCCDTQMELREWFATFLFVQHDGLVWPSEPSRVSRAVPEVRLGSVSLIPLRGSENEMRRSVAAFTADPLSLLRNV [ARAP1] | -0.0593 | 48.7 | 49.1 | -0.0622 | 0.748 | 0.922
